Test results reported in IntAct's records for PubMed 14769790.

B1: Ferredoxin-thioredoxin reductase, catalytic chain (Synechocystis sp. (strain PCC 6803 / Kazusa)), Q55389 (parent)
chain: MTSSDTQNNKTLAAMKNFAEQYAKRTDTYFCSDLSVTAVVIEGLARHKEELGSPLCPCRHYEDKEAEVKNTFWNCPCVPMRERKECHCMLFLTPDNDFAGDAQDIPMETLEEVKASMA
partner: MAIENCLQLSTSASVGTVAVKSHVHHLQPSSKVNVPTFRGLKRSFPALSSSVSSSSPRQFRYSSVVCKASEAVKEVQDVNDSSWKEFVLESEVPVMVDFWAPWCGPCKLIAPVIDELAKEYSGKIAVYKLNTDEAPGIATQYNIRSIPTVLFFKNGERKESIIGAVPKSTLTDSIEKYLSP
B2: Ferredoxin-thioredoxin reductase, catalytic chain (Synechocystis sp. (strain PCC 6803 / Kazusa)), Q55389 (parent)
chain: B1 chain
partner: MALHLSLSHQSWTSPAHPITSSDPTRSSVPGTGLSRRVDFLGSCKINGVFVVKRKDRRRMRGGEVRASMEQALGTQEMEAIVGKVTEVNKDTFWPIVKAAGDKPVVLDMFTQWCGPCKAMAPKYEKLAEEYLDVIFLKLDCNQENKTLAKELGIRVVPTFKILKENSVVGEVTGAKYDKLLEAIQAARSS
B3: Thioredoxin M-type, chloroplastic (Spinacia oleracea (Spinach)), P07591 (parent)
chain: B1 partner
partner: B1 chain

Variants of: B1
Conditions: with trxm_spiol trxm, P07591

Row | Variant | effect of a mutation on the interaction
1 | MTSSDTQNNKTLAAMKNFAEQYAKRTDTYFCSDLSVTAVVIEGLARHKEELGSPLCPCRHYEDKEAEVKNTFWNCPCVPMRERKECYCMLFLTPDNDFAGDAQDIPMETLEEVKASMA [H87Y] | decreasing interaction

Variants of: B2
Conditions: with trxf_spiol trxf

Row | Variant | effect of a mutation on the interaction
2 | MTSSDTQNNKTLAAMKNFAEQYAKRTDTYFCSDLSVTAVVIEGLARHKEELGSPLCPSRHYEDKEAEVKNTFWNCPCVPMRERKECHCMLFLTPDNDFAGDAQDIPMETLEEVKASMA [C58S] | increasing interaction

Variants of: B3
Conditions: with ftrc_syny3 ftrC, Q55389

Row | Variant | effect of a mutation on the interaction
3 | MAIENCLQLSTSASVGTVAVKSHVHHLQPSSKVNVPTFRGLKRSFPALSSSVSSSSPRQFRYSSVVCKASEAVKEVQDVNDSSWKEFVLESEVPVMVDFWAPWCGPSKLIAPVIDELAKEYSGKIAVYKLNTDEAPGIATQYNIRSIPTVLFFKNGERKESIIGAVPKSTLTDSIEKYLSP [C107S] | increasing interaction
